According to doi:10.1101/776187:

Assays:
[1] = biological target: dynactin (bovine (purified from bovine brain))
[2] = biological target: human cytoplasmic dynein (recombinant complex of DHC, DIC, DLIC, Tctex, Robl and LC8) (human) (UniProt Q14204)

processive run length of DDB^F684I on microtubules, single molecule TIRF [1]: 3.3 µm
speed of DDB^F684I on microtubules, single molecule TIRF [1]: 0.43 µm/s
processive run length of DDB^F684I on microtubules, single molecule TIRF [2]: 3.3 µm
speed of DDB^F684I on microtubules, single molecule TIRF [2]: 0.43 µm/s
B1: full-length Drosophila Bicaudal D F684I mutant (Dm BicD/F684I) (natural protein)
chain: MSSASNNGPSADQSVQDLQMEVERLTRELDQVSSASAQSAQYGLSLLEEKSALQQKCEELETLYDNTRHELDITQEALTKFQTSQKVTNKTGIEQEDALLNESAARETSLNLQIFDLENELKQLRHELERVRNERDRMLQENSDFGRDKSDSEADRLRLKSELKDLKFRETRMLSEYSELEEENISLQKQVSSLRSSQVEFEGAKHEIRRLTEEVELLNQQVDELANLKKIAEKQMEEALETLQGEREAKYALKKELDGHLNRESMYHISNLAYSIRSNMEDNASNNSDGEEENLALKRLEADLSTELKSPDGTKCDLFSEIHLNELKKLEKQLESMESEKTHLTANLREAQTSLDKSQNELQNFMSRLALLAAHVDALVQLKKQIDVKEQGKEGGQKKDELEQQLRALISQYANWFTLSAKEIDGLKTDIAELQKGLNYTDATTTLRNEVTNLKNKLLATEQKSLDLQSDVQTLTHISQNAGQSLGSARSTLVALSDDLAQLYHLVCTVNGETPTRVLLDHKTDDMSFENDSLTAIQSQFKSDVFIAKPQIVEDLQGLADSVEIKKYVDTVSDQIKYLKTAVEHTIDMNKHKIRSEGGDALEKVNTEEMEELQEQIVKLKSLLSVKREQIGTLRNVLKSNKQTAEVALTNLKSKYENEKIIVSDTMSKLRNELRLLKEDAATISSLRAMFAARCEEYVTQVDDLNRQLEAAEEEKKTLNQLLRLAVQQKLALTQRLEEMEMDREMRHVRRPMPAQRGTSGKSSFSTRPSSRNPASSNANPF
